Measured values reported in patent US20260234222A1.

Target: SARS-CoV-2 Delta Spike antigen (SARS-CoV-2 Delta)
Assay: ELISA, Spike antigen coated on plate

Row | Substance | EC50 [nM]
1 | Anti-S1 antibody DZIF-10c | 6.9
2 | Anti-S1 antibody ImdevimAb | 0.01
